Article doi:10.1101/2019.12.17.878660 (bioRxiv, 2019)

Target: T1, SurA (E. coli, UniProt P0ABZ6 21-428)
T1 sequence: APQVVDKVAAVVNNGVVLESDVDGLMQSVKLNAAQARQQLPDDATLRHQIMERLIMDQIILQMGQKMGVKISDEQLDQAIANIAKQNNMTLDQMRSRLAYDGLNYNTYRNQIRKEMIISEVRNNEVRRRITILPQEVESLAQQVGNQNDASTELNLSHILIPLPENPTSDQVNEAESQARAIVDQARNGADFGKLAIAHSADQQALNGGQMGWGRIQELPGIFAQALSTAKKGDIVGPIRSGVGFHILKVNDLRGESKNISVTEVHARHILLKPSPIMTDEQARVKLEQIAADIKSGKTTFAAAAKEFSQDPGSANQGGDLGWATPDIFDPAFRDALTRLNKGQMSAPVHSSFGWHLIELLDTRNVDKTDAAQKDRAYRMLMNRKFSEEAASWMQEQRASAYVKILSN
Test: cross-linking

B1: uOmpX (natural protein, E. coli, UniProt P0A917 24-171, looked up)
chain: ATSTVTGGYAQSDAQGQMNKMGGFNLKYRYEEDNSPLGVIGSFTYTEKSRTASSGDYNKNQYYGITAGPAYRINDWASIYGVVGVGYGKFQTTEYPTYKHDTSDYGFSYGAGLQFNPMENVALDFSYEQSRIRSVDVGTWIAGVGYRF
- binding result: binds
